Common to all, as to experiment: methyltransferase kinetics
What all share (format): biochemical, Aspergillus fumigatus
Common to all, as to settings: methyl donor SAM

Substrate in data set [1]: COC(=O)c1ccc(C(=O)O)cc1
Substrate in data set [2]: O=C(O)c1ccc(C(=O)O)o1
Substrate in data set [3]: O=C(O)/C=C/C(=O)N[C@@H](Cc1ccc(O)cc1)C(=O)O
Substrate in data set [4]: COC(=O)c1ccc(C(=O)O)o1
Substrate in data set [5]: O=C(O)c1ccc(C(=O)O)cc1

The results in this text go back to paper PMC9307002, “Carboxyl Methyltransferase Catalysed Formation of Mono‐ and Dimethyl Esters under Aqueous Conditions: Application in Cascade Biocatalysis” (Angewandte Chemie (International Ed. in English), 2022).

B1: FtpM (Aspergillus fumigatus Af293) (protein)
chain: MTQSNGNAVSSASDPYRLNRNIAASTRLSLQHYIWKENMGYLLHPSIDVSRPDLAIADVGTGTAIWILDLLRQLPNAKFHGFDISSEQYPAPGFLPPNVSLSKLDILGEIPEEYREKFDVVHARLLVQVVNQAGSDPVPVIRNMMKLLKPGGYLQWEEPNDDASKRPIVKADPANSSENAEKLLQRLDARFRAATPASWSVALAETFKEQGLQNVVREEFSTDTYLLLLDQTNYLGLFGELISKLDGDLKEELTQLHANTVAEARKGLSWKVRRFAFLGQKP
notes: recombinant, C-terminal His-tag; dimer (modelled)
For the protein B1, the Km in data set [1] turned out to be 1510 µM; in data set [2], 520 µM; in data set [3], 680 µM; in data set [4] it was 1400 µM; in data set [5], 72 µM. In addition, the kcat in data set [1] was 8.17e-05 s⁻¹; in data set [2] it was 0.00033 s⁻¹; in data set [3], 0.00105 s⁻¹; in data set [4], 8.3e-05 s⁻¹; in data set [5], 0.0148 s⁻¹.

By Km is commonly meant the substrate concentration at which the rate is half of its maximum. Usually kcat stands for the number of substrate molecules converted per active site and unit of time at saturation.
